Measured values as given in patent US20240287172A1 (SCIRHOM, published 2024).

T1: hiR1-FL-WT-T7 (human, UniProt Q96CC6 1-855)
T1 construct: on MEF-DKO cells
T1 sequence: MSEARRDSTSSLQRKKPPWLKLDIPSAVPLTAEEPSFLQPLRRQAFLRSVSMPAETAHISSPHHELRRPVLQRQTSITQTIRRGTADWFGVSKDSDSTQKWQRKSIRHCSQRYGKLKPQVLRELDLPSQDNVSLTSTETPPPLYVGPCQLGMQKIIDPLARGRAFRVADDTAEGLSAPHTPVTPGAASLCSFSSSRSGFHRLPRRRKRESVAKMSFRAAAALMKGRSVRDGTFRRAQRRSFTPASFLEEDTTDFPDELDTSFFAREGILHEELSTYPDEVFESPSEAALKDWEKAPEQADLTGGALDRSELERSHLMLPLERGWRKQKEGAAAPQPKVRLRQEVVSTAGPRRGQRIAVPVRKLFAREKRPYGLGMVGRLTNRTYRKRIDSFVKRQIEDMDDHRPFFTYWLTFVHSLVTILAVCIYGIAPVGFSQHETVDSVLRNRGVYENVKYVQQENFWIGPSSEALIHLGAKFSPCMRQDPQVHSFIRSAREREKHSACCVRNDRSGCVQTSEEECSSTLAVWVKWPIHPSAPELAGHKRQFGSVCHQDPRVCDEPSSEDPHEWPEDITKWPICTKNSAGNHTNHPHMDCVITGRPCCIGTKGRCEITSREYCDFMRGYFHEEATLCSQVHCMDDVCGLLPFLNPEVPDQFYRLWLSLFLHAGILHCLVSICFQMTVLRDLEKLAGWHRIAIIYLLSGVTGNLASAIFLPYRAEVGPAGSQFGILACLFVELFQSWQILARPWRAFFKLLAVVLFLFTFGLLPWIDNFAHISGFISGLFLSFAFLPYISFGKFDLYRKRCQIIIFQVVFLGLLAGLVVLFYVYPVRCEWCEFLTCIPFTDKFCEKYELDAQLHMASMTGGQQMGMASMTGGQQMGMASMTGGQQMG

T2: hiR2-FL-R543Q-T7 (human, UniProt Q6PJF5 1-856)
T2 sequence: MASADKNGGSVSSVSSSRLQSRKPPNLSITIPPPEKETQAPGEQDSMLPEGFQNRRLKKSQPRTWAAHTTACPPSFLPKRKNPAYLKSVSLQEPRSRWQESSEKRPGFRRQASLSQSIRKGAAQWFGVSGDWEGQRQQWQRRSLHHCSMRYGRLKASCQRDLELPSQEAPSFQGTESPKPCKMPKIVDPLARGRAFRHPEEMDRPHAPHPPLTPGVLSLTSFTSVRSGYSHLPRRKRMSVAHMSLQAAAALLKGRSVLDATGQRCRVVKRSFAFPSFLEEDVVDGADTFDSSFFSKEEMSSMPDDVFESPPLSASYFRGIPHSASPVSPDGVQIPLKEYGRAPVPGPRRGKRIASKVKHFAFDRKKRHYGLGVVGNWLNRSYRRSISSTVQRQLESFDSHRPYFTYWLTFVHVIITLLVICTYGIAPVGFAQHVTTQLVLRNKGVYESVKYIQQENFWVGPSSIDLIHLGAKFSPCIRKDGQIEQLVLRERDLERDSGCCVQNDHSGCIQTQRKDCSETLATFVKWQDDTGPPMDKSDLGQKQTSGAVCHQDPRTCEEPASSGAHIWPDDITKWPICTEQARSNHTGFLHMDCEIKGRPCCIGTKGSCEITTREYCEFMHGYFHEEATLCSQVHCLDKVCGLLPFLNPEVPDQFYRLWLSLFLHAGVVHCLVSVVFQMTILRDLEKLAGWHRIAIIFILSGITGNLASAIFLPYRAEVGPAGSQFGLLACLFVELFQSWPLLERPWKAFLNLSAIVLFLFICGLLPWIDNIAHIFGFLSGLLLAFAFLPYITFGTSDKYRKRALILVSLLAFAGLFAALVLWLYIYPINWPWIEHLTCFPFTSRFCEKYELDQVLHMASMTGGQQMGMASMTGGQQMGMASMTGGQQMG


How the values were obtained:
hiR1-FL-WT-T7 = target: T1, hiR1-FL-WT-T7; assay: FACS, MEF-DKO cells, 3 µg/ml
hiR2-FL-R543Q-T7 = target: T2, hiR2-FL-R543Q-T7; assay: FACS, MEF-DKO cells, 3 µg/ml
Excerpt: In brief, immortalized MEF-DKO-hiR2-FL-WT-T7 cells, MEF-DKO-miR2-FL-WT-T7 cells and MEF-DKO-hiR2-FL-R441K-T7, MEF-DKO-hiR2-FL-K443R-T7, MEF-DKO-hiR2-FL-V459I-T7, MEF-DKO-hiR2-FL-G481Q-T7, MEF-DKO-hiR2-FL-L488R-T7, MEF-DKO-hiR2-FL-L493I-T7, MEF-DKO-hiR2-FL-D496T-T7, MEF-DKO-hiR2-FL-H505R-T7, MEF-DKO-hiR2-FL-Q512L-T7, MEF-DKO-hiR2-FL- R513K-T7, MEF-DKO-hiR2-FL-D528N-T7, MEF-DKO-hiR2-FL-P533-T7, MEF-DKO-hiR2-FL-M534S-T7, MEF-DKO-hiR2-FL-G540S-T7, MEF-DKO-hiR2-FL-R543Q-T7, MEF-DKO-hiR2-FL-T544P-T7, MEF-DKO-hiR2-FL-G546A-T7, MEF-DKO-hiR2-FL-A547V-T7, MEF-DKO-hiR2-FL-R582Q-T7, MEF-DKO-hiR2-FL-F588L-T7, MEF-DKO-hiR2-FL-M591I-T7, MEF-DKO-hiR2-FL-E594K-T7, MEF-DKO-hiR2-FL-E626D-T7, MEF-DKO-hiR2-FL-L657I-T7, and MEF-DKO-hiR2-FL-H835Y-T7 cells were harvested with 10 mM EDTA in PBS, washed and resuspended in FACS buffer (PBS, 3% FBS, 0.05% sodium azide), and seeded in Nunc U-bottom 96-well plates (Thermo Fisher Scientific, USA) at approximately 3×10⁵ cells per well.
To pellet cells and remove supernatants, the plates were centrifuged at 1,500 rpm and 4° C. for 3 minutes. For primary staining, cells were resuspended in 100 μl per well of either FACS buffer alone (controls) or the purified antibodies 3, 5, 16, 22, 34, 42, 43, 44, 48, and 50 of the invention at 3 μg/ml FACS buffer and incubated on ice for 1 hour. Afterwards, plates were centrifuged at 1,500 rpm and 4° C. for 3 minutes and washed twice with 200 μl per well of FACS buffer. For secondary staining, cells were spun down and resuspended in 100 μl per well of PE-conjugated goat anti-mouse IgG F(ab′)2 detection fragment (Dianova, Germany) diluted 1:100 in FACS buffer. Protected from light, the cell suspensions were incubated on ice for 1 hour. Plates were then centrifuged at 1,500 rpm and 4° C. for 3 minutes and washed three times with 200 μl per well of FACS buffer. Finally, cells were resuspended in 150 μl per well of FACS buffer and analyzed using a BD Accuri™ C6 Plus flow cytometer (Becton Dickinson, Germany).

Binder	loss of binding vs wild type (hiR1-FL-WT-T7)	loss of binding vs wild type (hiR2-FL-R543Q-T7)
antibody 48 (antibody, V domains shown, mouse IgG, kappa light chain; also called clone #48; purified antibody 48) VH: QVQLQQSGTELVRPGTSVKVSCKASGYAFTNYLIEWVKQRPGQGLEWIGVINPGSGFTKYNEKFKGKATLTADKSSSTVYMHLSSLTSEDSAVYFCARGLYRAMDYWGQGTSVTVSS VL: DIQMTQSPASQSASLGESVTITCLASQTIATWLAWYQQKPGKSPQLLIYGATTLADGVPSRFSGGGSGTKFSFKISSLQAEDFVSYYCQQLYSTPYTFGGGTKLEIK	≥ 60%	–
antibody 50 (antibody, V domains shown, mouse IgG, kappa light chain; also called clone #50; purified antibody 50) VH: QVQLQQSGAELVRPGASVKVSCKASGYAFSNYLIEWVKQRPGQGLEWIGVINPGSGFTKYNEKFKGKATLTADKSSSTAYMQLSSLTSEDSAVYFCARGLYRAMDYWGQGTSVTVSS VL: DIQMTQSPASQSASLGESVTITCLASQTIGTWLAWYQQKPGKSPQLLIYAAASLADGVPSRFSGGGSGTKFSFKISSLQAEDFVNYYCQQIYSTPYTFGGGTKLEIK	≥ 95%	≥ 30%
antibody 34 (antibody, V domains shown, mouse IgG, kappa light chain; also called clone #34; purified antibody 34) VH: QVTLKESGPGILQPSQTLSLTCSFSGFSLSTFSLGVGWIRQSSGKGLEWLAHIWWDDEKYYNPALKSRLTISKDTSKNQVFLKIANVDAADTATYYCARAYYSKSYYALDYWGQGTSVTVSS VL: DIQMTQSPSSLSASLGERVSLTCRASQEISGYLSWLQQKPDGTIKRLIYAASTLDSGVPKRFSGSRSGSDYSLAISSLESEDFADYYCLQYANFPFTFGSGTKLEIK	≥ 95%	≥ 95%
antibody 5 (antibody, V domains shown, mouse IgG, kappa light chain; also called clone #5; purified antibody 5) VH: QVTLKESGPGILQPSQTLSLTCSFSGFSLSTFGMGVGWIRQPSGKGLEWLAHIWWDDEKYYNSALKSRLTISKATSKNQAFLKIANVDTADTATYYCARISNYGSNYWYFNVWGTGTTVTVSS VL: QVVLTQSPALMSASPGEKVTMTCSAGSSVSCMYWYQQKPGSSPRVLIYDTSNLASGVPARFTGSGSGTSYSLTISRMEAEDAASYYCQQWNSYPLTFGAGTKLELK	≥ 95%	≥ 95%
antibody 42 (antibody, V domains shown, mouse IgG, kappa light chain; also called clone #42; purified antibody 42) VH: QVTLKESGPGILQPSQTLSLTCSLSGFSLSTFGRGVGWIRQPSGKGLEWLAHIWWDDEKYYNPALKSRLTISKDTSKNQVFLRIANVDTADTATYYCARIQNYGSNYWYFDVWGTGTTVTVSS VL: LIVLTQSPAIMSASPGEKVTMTCGATSRISYMFWYQQKPGSSPRVLIYDTSNLASGVPVRFSGSGSGTSYSLTISRVEAEDVATYYCQQWNSYPLTFGAGTKLELK	≥ 95%	≥ 95%
antibody 44 (antibody, V domains shown, mouse IgG, kappa light chain; also called clone #44; purified antibody 44) VH: QVTLKESGPGILQPSQTLSLTCSFSGFSLSTFGMGVGWIRQPSEKGLEWLAHIWWDDDKYYNPALKSRLTISKDTSKNQIFLKITNVDTAETATYYCSRIGNYGSNYWYFDVWGTGTTVTVSS VL: QIVLTQSPAVMSASPGEKVTMTCTASSSVYYMYWYQQTPGSSPRLLIYDTSNLASGVPVRFSGSGSGTSYSLTISRMEAEDAATYYCQQWNTYPLTFGAGTKLELK	≥ 95%	≥ 60%
antibody 43 (antibody, V domains shown, mouse IgG, kappa light chain; also called clone #43; purified antibody 43) VH: QVALKESGPGILQPSQTLSLTCSFSGFSLSTFGMGVGWIRQSSGKGLEWLANIWWDDDKYYNPALKSRLTISKDASKNQAFLKIANVDTADTATYYCARIGNYGSNYWYFDVWGTGTTVTVSS VL: QIVLTQSPAIMSASPGERVTMTCSANSRISYMYWYQQKPGSSPRLLIYDTSNLASGVPVRFSGSGSGTSYSLTISRMEAEDAATYNCQQWSSYPLTFGAGTKLELK	≥ 95%	≥ 95%
antibody 22 (antibody, V domains shown, mouse IgG, kappa light chain; also called clone #22; purified antibody 22) VH: QVTLKESGPGILQPSQTLSLTCSFSGFSLSTFGMGVGWIRQPSGKGLEWLAHIWWDDEKYYNSALKSRLTISKATSKNQVFLKIANVDTADTATYYCARISNYGSNYWYFNVWGTGTTVTVSS VL: QVVLTQSPALMSASPGEKVTMTCSAGSSVSYMYWYQQKPGSSPRVLIYDTSNLASGVPARFTGSGSGTSYSLTISRMEAEDAATYYCQQWNSYPLTFGAGTKLELK	≥ 95%	≥ 60%
antibody 16 (antibody, V domains shown, mouse IgG, kappa light chain; also called clone #16; purified antibody 16) VH: QVTLKESGPGILQPSQTLSLTCSFSGFSLSTFALGVGWIRQPSGRGLEWLAHIWWDDDKYYNPALKSRLTISKDTSKNHVFLKIANVDTADTATYYCARITTYYYGMDYWGQGTSVTVSS VL: DIVLSQSPATLSVTPGDSVSLFCRASQSIGNHLHWYQQESHASPRLLIKYASQSISGIPSRFSGSGSGTDFTLSINSVETEDFGMYFCQQSYNWPLTFGAGTKLELK	≥ 95%	–
antibody 3 (antibody, V domains shown, mouse IgG, kappa light chain; also called clone #3; purified antibody 3) VH: QVTLKESGPGILQPSQTLSLTCSFSGFSLTTFAMGIGWVRQPSGKGLEWLAHIWWDGEKYNNPVLKSRLTISKDTSKNQVFLRIANVDTPDTATYYCARISSIYYIIDNWGQGTSVTVSS VL: DIVLTQSPATLSVTPGHSVSLSCRASQSISNNLHWYQKKSHESPRLLIKYVSQSISGIPSRFSGSGSGTDFTLSINSVETEDFGMYFCQQSYNWPLTFGAGTKLELK	≥ 95%	≥ 60%
